Measured values: US20210267939A1, “COMPOSITIONS AND METHODS FOR TREATING NAFLD/NASH AND RELATED DISEASE PHENOTYPES” (priority 2018, published 2021)

Experiments:
[1] = target: V5-tagged human ACL purified from Fao hepatoma cells (UniProt P53396)
[2] = target: 147 kDa GST-tagged human ACL (Sigma, SRP0288) (UniProt P53396)
[3] = tested on: BCKD E1 (an alpha2beta2 heterotetramer)
AKT = AKT ser473 phosphorylation in Fao hepatoma cells; type: cell-based; conditions: 10 μM for 1 hour
Protocol: Cell culture studies: Fao hepatoma cells (Sigma) were cultured in RPMI-1640 (Gibco) containing 10% FBS (Sigma). […] Human embryonic kidney (HEK) 293 cells were used to visualize localization of CMV-ΔMTS-BDK-GFP and control CMV-GFP constructs by confocal microscopy. Cells were plated and transfected in a 96 well glass bottom plate that had been pre-coated with poly-D lysine solution for 1-hour at room temperature. For transfection, cells were incubated in Opti-mem containing 1.5 μl of Mirus, TransIT-293 transfection reagent and 1 μg DNA per well. After 24 hours, mitochondrial and nuclear staining was performed in live cells using Image-IT Live Mito and nuclear labeling Kit (Cell permeant MitoTracker Red CMXRos (579/599 nm) and Hoechst 33342 (350/461 nm) ThermoFisher). Confocal images were captured using a Zeiss LSM 510 inverted confocal microscope using a 405 diode for Hoechst, Argon for GFP, and HeNe 561 for MitoTracker. Images were captured in one plane using a 63× oil objective. Each wavelength was acquired separately and then consolidated after acquisition.
Immunoblotting: Tissue lysates used for immunoblotting were prepared in Cell Lysis Buffer (Cell Signaling Technologies) containing protease inhibitor tablets (Roche), phosphatase inhibitor cocktails 2 and 3 (Sigma), and 10 mM PMSF. […] Immunoblots were developed using a Li-Cor Odyssey CLx and quantified using the Li-Cor software.

“V5 tagged human BDK purified from Fao hepatoma cells” was tested, and the “ACL phosphorylation on ser455 measured by immunoblot after mixing of the purified proteins with ATP” value [1] was “This study confirmed that BDK specifically phosphorylates ser455 of the V5-tagged human ACL”.

With “40 kDa catalytic subunit of bovine PKA (Promega, V5161)” the “incorporation of [gamma-32P]-phosphoryl group into ACL (purified proteins, SDS gel, autoradiograph)” value [2] was “PKA caused a clear increase in ^32P labeling of ACL” and the “32P phosphorylation of BCKDH (purified proteins, SDS gel, autoradiograph)” value [3] was “PKA caused a lesser, but still clear increase in BCKDH phosphorylation”.

With “MBP-BDK (maltose-binding protein-tagged mature BDK lacking the mitochondrial-targeting pre-sequence; amino acid residue 31-382)” the “incorporation of [gamma-32P]-phosphoryl group into ACL (purified proteins, SDS gel, autoradiograph)” value [2] was “MBP-BDK also caused phosphorylation of ACL, albeit to a lesser extent than PKA” and the “32P phosphorylation of the purified e1a subunit of BCKDH (purified proteins, SDS gel, autoradiograph)” value [3] was “MBP-BDK also caused a robust increase in phosphorylation of the purified e1a subunit of BCKDH”.

In the case of O=c1[nH]c2ccccc2n1C1CCN(Cc2ccc(-c3[nH]c4cc5ncnc5cc4nc3-c3ccccc3)cc2)CC1 [A6730], the “phosphorylation of ser473 on AKT” value (AKT) was “reduce”.
